Reference: patent US8361484B2, “Polymer systems for lung volume reduction therapy” (Aeris Therapeutics, Inc., priority 2006, dated 2013)

Experiment: PVA hydrogel durability in phosphate buffered saline pH 7.4, integrity checked by periodic inversion
Format: physicochemical
Details: additive at 10%; 4% borate; PBS pH 7.4, room temperature
Method: The effect of the PVA (99% hydrolysis rate; average molecular weight 100K) concentration on gel durability was evaluated by first aliquotting 0.2 mL of a 4% borate solution into bottom of 14 mL tube. Then 1.8 mL of various PVA solutions of 2-5% concentrations were added by vigorous injection through a 3 mL syringe with an 18G needle. Three tubes were prepared for of each concentration and cured at room temperature for one hour to insure complete polymerization. 8 mL of phosphate buffered saline, pH 7.4, were added to each tube, covered and incubated at room temperature. The integrity of the gels was checked by periodic inversion.
The effect of additives on the durability of the PVA gel (99% hydrolysis rate; average molecular weight 100K) was evaluated by first aliquotting 0.2 mL of a 4% borate solution into bottom of 14 mL tube. Then 1.8 mL of PVA (5%) and additive containing solutions of 2-5% concentrations were added by vigorous injection through a 3 mL syringe with an 18G needle. Three tubes were prepared for of each concentration and cured at room temperature for one hour to insure complete polymerization. 8 mL of phosphate buffered saline, pH 7.4, were added to each tube, covered and incubated at room temperature. The integrity of the gels was checked by periodic inversion. […]

With albumin the “Effect of additive on durability of 5% PVA hydrogels” value was “increase the durability”.
